Measured values reported in the supplement of paper PMC7877785.
± gives the uncertainty stated by the source.

Assay: self-splicing fitness, log relative to wild type (ln ratio); higher = more splicing; Tetrahymena group I intron in knt gene, E. coli kanamycin selection, DiMSum; sequences stand for … in CUCUCU…GGAGGGAAAAGUUAUCAGGCAUGCACCUGGUAGCUAGUCUUUAAACCAAUAGAUUGCAUCGGUUUAAAAGGCAAGACCGUCAAAUUGCGGGAAAGGGGUCAACAGCCGUUCAGUACCAAGUCUCAGGGGAAACUUUGAGAUGGCCUUGCAAAGGGUAUGGUAAUAAGCUGACGGACAUGGUCCUAACCACGCAGCCAAGUCCUAAGUCAACAGAUCUUCUGUUGAUAUGGAUGCAGUUCACAGACUAAAUGUCGGUCGGGGAAGAUGUAUUCUUCUCAUAAGAUAUAGUCGGACCUCUCCUUAAUGGGAGCUAGCGGAUGAAGUGAUGCAACACUGGAGCCGCUGGGAACUAAUUUGUAUGCGAAAGUAUAUUGAUUAGUUUUGGAGUACUCGUGGUCG
Outline: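 DiMSum derived fitness as the error-weighted combination of fold changes across replicates, kanamycin versus no kanamycin, normalised to wild type. E. coli BL21(DE3) held the library, which randomised all eight P1ex-region intron nucleotides within the knt kanamycin-resistance gene on pET-22b(+). Six replicate transformations grew overnight at 37°C or 30°C on LB agar with or without 25 μg/mL kanamycin, also containing 100 μg/mL carbenicillin, 50 μM IPTG and 0.2% rhamnose, and pooled colonies were amplicon-sequenced on an Illumina HiSeq 2500.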

Sequence | self-splicing fitness (ln) (30 °C) | self-splicing fitness (ln) (37 °C)
CUAGAGCAAUAUUACGCAGA | -2.47 ± 0.37 | -3.6 ± 0.33
CUAGAGCAAUAUUACGCAGG | -2.12 ± 0.14 | -1.75 ± 0.19
CUAGAGCAAUAUUACGCGGC | -0.707 ± 0.19 | 0.756 ± 0.2
CUAGAGCAAUAUUACGGCGG | -0.275 ± 0.075 | 0.501 ± 0.1
CUAGAGCAAUAUUACGGGAG | -0.494 ± 0.052 | -0.0261 ± 0.075
CUAGAGCAAUAUUACGGGAU | -2.94 ± 0.17 | -1.96 ± 0.23
CUAGAGCAAUAUUACGUCAA | -3.76 ± 0.24 | -2.23 ± 0.21
CUAGAGCAAUAUUACGUGAA | -3.81 ± 0.23 | -2.07 ± 0.26
CUAGAGCAAUAUUACGUGGU | -4.21 ± 0.24 | -3.52 ± 0.33
CUAUAGCAAUAUUACGAUCG | -0.256 ± 0.075 | 0.439 ± 0.1
CUAUAGCAAUAUUACGCAAC | – | -2.26 ± 0.35
CUAUAGCAAUAUUACGCAGG | -2.75 ± 0.34 | –
CUAUAGCAAUAUUACGCCAU | -2.66 ± 0.39 | -2.45 ± 0.37
CUAUAGCAAUAUUACGCCUG | -0.141 ± 0.15 | -0.439 ± 0.14
CUAUAGCAAUAUUACGCGCU | -4.04 ± 0.36 | -2.61 ± 0.41
CUAUAGCAAUAUUACGCUAC | -3.66 ± 0.17 | -2.98 ± 0.2
CUAUAGCAAUAUUACGCUUA | -2.47 ± 0.24 | -2.34 ± 0.3
CUAUAGCAAUAUUACGGAAU | -3.5 ± 0.4 | –
CUAUAGCAAUAUUACGGACA | -2.77 ± 0.22 | -1.1 ± 0.29
CUAUAGCAAUAUUACGGACC | – | -1.23 ± 0.34
CUAUAGCAAUAUUACGGCGC | -2.5 ± 0.28 | –
CUAUAGCAAUAUUACGGUAG | -2.21 ± 0.14 | -2.58 ± 0.2
CUAUAGCAAUAUUACGUAAG | -0.717 ± 0.058 | 0.183 ± 0.084
CUAUAGCAAUAUUACGUAGA | -3.52 ± 0.33 | -1.87 ± 0.34
CUAUAGCAAUAUUACGUCAG | -1.75 ± 0.11 | -0.591 ± 0.12

Sequence | self-splicing fitness (ln) (30 °C) | self-splicing fitness (ln) (37 °C)
CUAUAGCAAUAUUACGUCCA | -4.03 ± 0.36 | -3.13 ± 0.4
CUAUAGCAAUAUUACGUCUA | -3.05 ± 0.36 | -3.16 ± 0.35
CUAUAGCAAUAUUACGUGAA | -4.01 ± 0.19 | -2.51 ± 0.21
CUAUAGCAAUAUUACGUGCG | -1.19 ± 0.1 | -0.322 ± 0.13
CUAUAGCAAUAUUACGUUCG | -0.385 ± 0.094 | -0.145 ± 0.14
CUAUAGCAAUAUUACGUUUU | -3.44 ± 0.16 | -2.61 ± 0.21
CUCAAGCAAUAUUACGACAC | -3.35 ± 0.29 | -2.52 ± 0.3
CUCAAGCAAUAUUACGAGCC | – | -2.67 ± 0.3
CUCAAGCAAUAUUACGAUUU | -3.68 ± 0.21 | -2.4 ± 0.25
CUCAAGCAAUAUUACGCCCA | -3.18 ± 0.4 | -2.01 ± 0.47
CUCAAGCAAUAUUACGCCGU | -3.42 ± 0.17 | -1.88 ± 0.15
CUCAAGCAAUAUUACGCGAC | -1.93 ± 0.16 | -1.45 ± 0.19
CUCAAGCAAUAUUACGCGGC | -3.21 ± 0.25 | -3.15 ± 0.34
CUCAAGCAAUAUUACGCUCA | -3.34 ± 0.26 | -2.49 ± 0.24
CUCAAGCAAUAUUACGCUGU | -3.74 ± 0.21 | -1.59 ± 0.23
CUCAAGCAAUAUUACGGAUC | -3.98 ± 0.43 | -2.19 ± 0.27
CUCAAGCAAUAUUACGGCAA | -3.15 ± 0.32 | -1.32 ± 0.24
CUCAAGCAAUAUUACGGCCG | -1.2 ± 0.13 | -1.69 ± 0.24
CUCAAGCAAUAUUACGGGGC | -4.64 ± 0.41 | -3.31 ± 0.33
CUCAAGCAAUAUUACGGGUC | -4.31 ± 0.17 | -2.48 ± 0.12
CUCAAGCAAUAUUACGGUCU | -3.13 ± 0.16 | -3.56 ± 0.39
CUCAAGCAAUAUUACGUAAA | -3.37 ± 0.18 | -2.48 ± 0.25
CUCAAGCAAUAUUACGUAGU | -3.43 ± 0.17 | -1.91 ± 0.14
CUCAAGCAAUAUUACGUGAU | -1.25 ± 0.053 | -0.372 ± 0.067
